Biological target: T1, HR-N (SN50) peptide of the SARS-CoV spike protein (SARS-CoV, UniProt P59594 903-952)
T1 peptide: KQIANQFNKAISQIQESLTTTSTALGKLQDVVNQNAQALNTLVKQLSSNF
Test: circular dichroism

Q: Does LGDISGINASVVNIQKEIDRLNEVAKNLNESLIDLQELGK [HR-C (SC40) peptide of the SARS-CoV spike protein] bind?
A: Result: binds
